Key:
T98G cell line = experiment: sLCR-mCherry reporter expression and reprogramming in a glioma cell line; assay type: cell-based; details: transient over-expression of SALL3, SOX2 and POU3F2
Description: The T98G and U87MG (kindly provided by the van Tellingen lab, NKI) were propagated in EMEM medium. For the experiments in FIG. 13a, T98G were switched to RHB-A supplemented with EGF (20 ng ml-1), bFGF (20 ng ml-1), heparin (1 μg ml-1) and 5% penicillin and streptomycin and propagated first on standard tissue culture-treated plastic, then in ultra-low binding plastic (CORNING).
The Proneural GBM is thought to represent the common GBM ancestor subtype and also to reflect an oligodendrocytic cell-of-origin^26′^37. […] To test whether a PN sLCR would mirror the Proneural state, we decided to induce reprogramming of a FBS-driven conventional cell line into a PN-GICs using the master TFs underlying the PN identity^38. To this end, we transduced either MGT #1 or PNGT #2 into the T98G cell line, which is characterized by TP53 mutations (https://portals.broadinstitute.org/ccle), which are more likely to be associated with a PN phenotype^16. […] Of note, these set of experiments were conducted with a mCherry fluorescent protein carrying a nuclear localization signaling, thereby excluding that the fluorescent protein intensity (mCherry is brighter than mVenus), localization and stability (mVenus is transmembrane and stabilized) play a major role in the observed phenotypic transitions.

[1] = system: MES-hGICs-MGT #1dim xenografts; experiment: Orthotopic glioma xenograft, genetic tracing of MGT #1; assay type: in vivo, NSG mice
Description: Tissue dissection and Cell surface staining: Brain tumor dissection was previously described in detail^77. Briefly, the tissue was dissected with a scalpel, digested in Accutase/DNasel (947 μl Accutase, 50 μl DNase I Buffer, 3 μl DNase I) at 37° C. until needed. Filtered through a 120 μm cell strainer first and a 40 μm cell strainer before RBC lysis (NH4Cl, 155 mM; KHCO3, 10 mM; EDTA, pH 7.4, 0.1 mM). After washing in cold PBS, viability and cell count were assessed automatically with 0.4% Trypan Blue staining using a TECAN SPARK20M.
When surface markers were assessed, typically, 200.000 cells/antibody were used in 15 ml Falcons. Staining volume was 50 μl in RHB-A medium with primary antibody (e.g. CD133-APC; Miltenyi), on ice, in the dark, for 30′. […] Depending on whether cells were analyzed or sorted, data acquisition was performed on the BD LSRFortessa or cells were sorted using the BD Aria II or a Astrios Moflo. The appropriate laser-filter combinations were chosen depending on the fluorophores being analyzed. Typically, to remove dead cells, events were first gated on the basis of shape and granularity (FSC-SSC), and we used as viability dyes either AnnexinV or LIVE/DEAD Fixable Aqua Dead Cell Stain Kit (depending on the fluorophores being analyzed). […]
We intracranially transplanted MES-hGICs-MGT #1^dim cells into NSG mice and longitudinally monitored tumor formation. […]

MES-hGICs and PN-hGICs = experiment: FACS of basal sLCR expression in hGICs; assay type: cell-based, human; details: growth-factor defined conditions in vitro
Description: FACS sorting: Transduced hGICs were harvested into single cell suspensions and resuspended into cold RHB-A complete and filtered into FACS tubes. Sorting was conducted using BD FACSAria III or Fusion. The appropriate laser-filter combinations were chosen depending on the fluorophores being sorted for. Typically, to remove dead cells, events were first gated on the basis of shape and granularity (FSC-A vs. SSC-A) and doublets were excluded (FSC-A vs. FSC-H). Positive gates were established on PGK-driven and constitutively expressed H2B-CFP as sorting reporter, to sort for populations with low to medium intensity of sLCR-dependent fluorophore expression.
Next, we transduced Proneural (PNGT #1-2) and Mesenchymal (MGT #1-2) sLCRs lentiviral particles into spontaneously immortalized human neural progenitor cells that acquired high copy number of PDGFRA, c-Myc and CDK4. To recapitulate the common PN and MES GBM genetic backgrounds, we further engineered hGICs to be depleted of PTEN and either bear IDH1^R132 and TP53^R273H point mutations or be further depleted of TP53 and NF1, thereby generating PN-hGICs and MES-hGICs, respectively. These cells show DNA methylation profiles similar to GBM patients and acquire subtype-specific gene-expression in vivo and therefore represent two distinct GBM subtypes.

MCF7 cells = experiment: FACS of MGT #1 expression in breast cancer cells; assay type: cell-based; details: after lentiviral transduction
Description: The MCF7, MDA-231, A549 and H1944, cell lines (kindly provided by the Rene Bernards lab, NKI) were cultured in RPMI medium. All cell lines were supplemented with 10% FBS, and 5% penicillin and streptomycin at 37° C. in a 5% CO2-95% air incubator.
Tumor subtypes are genetically engraved in breast cancer cells^40. […] To confirm that MGT #1 expression reflects that actual breast cancer subtype identity, we FACS sorted and sub-cloned the top MCF7-MGT #1 and the mid MDA-231-MGT #1 expressing cells. Nevertheless, further propagation of the FACS-sorted populations reestablished pre-sorting homeostasis, with MCF7 expressing lower levels of MGT #1 than MDA-231.

B1: MGT #1: subtype-specific sLCR for mesenchymal glioblastoma (MES-GBM) (nucleic acid)
chain: ATATTTATTTTTAGGACCAGAAAGTTAAAGTGAATTGGATTTGATCCATTTTCTGAAAGGCTGGCAAGAATTCTTGACATTGCACAGGAATTTCCATGTCAGCATGTTCTCACATGTATGATCTAATTTAGAGATTATTTTGGGGGGCGGGGGTTGAGGAAATGGCATGACTCAGAGTTTAAAAGCCCCAAATCTTAGCTGTGCCTGTGTAGCTTTACCACATAACCCATTGATAACTTAGTTGTGCAACCATCACCACCATCTGTTTTCAGAACTCTTTTCATTTTGCGAAACTGAAACCCGTTAAGCACTGATTTCCCACTCTCCCTCCTCCCAGCCCATAGCAAACCACCATCCCACCAGCACTTTCATTTCGCAAATGGCAAAACTGAAGCCGATATTGTGGTTGTGACTTATCCCAAAGTAATATACACATAAACCTCTATGGATGAGGAAAAAGACAGAGGGAAACTAAAAATTCAAAAGAACAAATTTGACTCACAGATTTGCTGACTCATAGTTGTGACACTTCCTGGCTCAGGAAGTTGAATTTCATTAAGCCTTTGTGGTTTGGGGCTCTGCTGTGCTTTGACAGCTCTGATCTCCTCCCTTCCGGCTGGGCTGTCTGGGGCGCTCTAAAATGAGTGTTGATTTAATGCACTGCCTTCGCACCCGTGCTGGTGCGTCCCGGGGACAGGGGTGGCTGTGCGGTGCCGCGGCGGCCGGCGGGGCTCCTTCCCCAGCAGGGGTGGGGACGCTGAGTCACGGATCTGTCACCGCTTTGCACCTCTCCGAGCCCTCGGGGGCCAAAGCAAAAGCGAAAGCGA
modifications: sLCR
sLCR reporter expression upon master TFs (T98G cell line): neutral to MGT #1 expression
distribution of MGT #1 expressing cells in the tumor (immunohistochemical staining) ([1]; intracranial transplant, n=10, humane end point): well confined within the invasive front
endogenous mVenus fluorescence by flow cytometry, in vivo vs in vitro ([1]; xenograft-derived tumor cells): vast majority of the tumor cells switched to a MGT #1^low or dark state
basal sLCR expression (MES-hGICs and PN-hGICs): higher basal expression in MES-hGICs compared to PN-hGICs
basal MGT #1 expression (MCF7 cells): lower MGT #1 expression compared to MDA-231 cells

Reference: patent publication US20210343368A1, “Method for Engineering Synthetic Cis-Regulatory DNA” (Max-Delbrück-Centrum für Molekulare Medizin in der …, priority 2018, published 2021)
